What was measured:
[1] = target: K48-linked tri-UB (UniProt P0CG48); assay: ITC
[2] = target: K48-linked tetra-UB (UniProt P0CG48); assay: ITC
[3] = target: K48-linked di-UB (UniProt P0CG48); assay: ITC
[4] = target: K63-linked tetra-UB (UniProt P0CG48); assay: ITC
[5] = target: K63-linked tri-UB (UniProt P0CG48); assay: ITC
[6] = target: K48-linked penta-UB (UniProt P0CG48); assay: ITC
[7] = target: K63-linked di-UB (UniProt P0CG48); assay: ITC
[8] = target: K63-linked penta-UB (UniProt P0CG48); assay: ITC
[9] = target: K48-linked tri-UB (UniProt P0CG48); assay: SEC-SAXS; complexes assembled at 170 μM, 1:1, in 20 mM HEPES pH 8.0, 150 mM NaCl, 1 mM TCEP; Superdex 75 10/300 increase coupled to SAXS (ESRF BM29)
[10] = target: K48-linked tetra-UB (UniProt P0CG48); assay: as above
[11] = target: K48-linked di-UB (UniProt P0CG48); assay: as above

“Cdu1^CA M149A/M153A variant (from UniProt B0B9A0 130-401) (enzyme)” gave a Kd [1] of 1.78 µM, a dH [1] of 6.4 kcal/mol and a stoichiometry N [1] of 1.01. For the same substance, the Kd [2] was 1.24 µM, the dH [2] was 10.9 kcal/mol and the stoichiometry N [2] was 0.95. For the same substance, the Kd [3] was 2.91 µM, the dH [3] was 1.89 kcal/mol and the stoichiometry N [3] was 0.98.
For “Cdu1^CA, catalytically inactive Cdu1(130-401) with C345 mutated to Ala (from UniProt B0B9A0 130-401) (enzyme)”, the Kd [1] was 0.8 µM, the dH [1] was 7.05 kcal/mol and the stoichiometry N [1] was 1.01. It also gave a Kd [4] of 4.47 µM, a dH [4] of 9.93 kcal/mol and a stoichiometry N [4] of 1.6. It also gave a Kd [2] of 0.31 µM, a dH [2] of 9.63 kcal/mol and a stoichiometry N [2] of 0.99. It also gave a Kd [5] of 3.01 µM, a dH [5] of 7.34 kcal/mol and a stoichiometry N [5] of 1.24. It also gave a Kd [6] of 0.28 µM, a dH [6] of 10 kcal/mol and a stoichiometry N [6] of 0.99. It also gave a Kd [3] of 2.58 µM, a dH [3] of 3.67 kcal/mol and a stoichiometry N [3] of 1.02. For the same substance, the Kd [7] was 2.52 µM, the dH [7] was 5.99 kcal/mol and the stoichiometry N [7] was 0.92. For the same substance, the Kd [8] was 6.56 µM, the dH [8] was 10.9 kcal/mol and the stoichiometry N [8] was 2.3. The stoichiometry N [9] was 1, the stoichiometry N [10] was 1 and the stoichiometry N [11] was 1.
In the case of “Cdu1^CA Q384A/A385R variant (from UniProt B0B9A0 130-401) (enzyme)”, the Kd [1] is reported as 1.65 µM, the dH [1] is reported as 7.7 kcal/mol and the stoichiometry N [1] is reported as 1.04. For the same substance, the Kd [2] was 1.42 µM, the dH [2] was 7.86 kcal/mol and the stoichiometry N [2] was 1.14. For the same substance, the Kd [3] was 3.44 µM, the dH [3] was 3.89 kcal/mol and the stoichiometry N [3] was 0.96.

From publication PMC11527256
